We go through six proteins from patent US20040082509.

Data set [1] addresses T1, L-TAT-IB2 peptide.
T1 chain: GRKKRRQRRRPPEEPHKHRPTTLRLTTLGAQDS

Data set [2] has as its target T2, D-TAT-IB1 peptide.
T2 chain: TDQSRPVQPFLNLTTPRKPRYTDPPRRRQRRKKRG

The target in data set [3] is T3, L-TAT-IB1 peptide.
T3 chain: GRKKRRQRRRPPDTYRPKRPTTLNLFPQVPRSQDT

Data set [4] has as its target T4, D-TAT-JNKI1 (i.e., D-TAT-JBD20).
T4 chain: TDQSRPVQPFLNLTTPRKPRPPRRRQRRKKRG

Data set [5] deals with T5, L-TAT-JNKI1 (i.e., L-TAT-JBD20).
T5 chain: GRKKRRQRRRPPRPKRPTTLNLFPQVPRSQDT

B1: recombinant nonactivated JNK1 (protein)
chain: MSRSKRDNNFYSVEIGDSTFTVLKRYQNLKPIGSGAQGIVCAAYDAILERNVAIKKLSRPFQNQTHAKRAYRELVLMKCVNHKNIIGLLNVFTPQKSLEEFQDVYIVMELMDANLCQVIQMELDHERMSYLLYQMLCGIKHLHSAGIIHRDLKPSNIVVKSDCTLKILDFGLARTAGTSFMMTPYVVTRYYRAPEVILGMGYKENVDLWSVGCIMGEMVCHKILFPGRDYIDQWNKVIEQLGTPCPEFMKKLQPTVRTYVENRPKYAGYSFEKLFPDVLFPADSEHNKLKASQARDLLSKMLVIDASKRISVDEALQHPYINVWYDPSEAEAPPPKIPDKQLDEREHTIEEWKELIYKEVMDLEERTKNGVIRGQPSPLGAAVINGSQHPSSSSSVNDVSSMSTDPTLASDTDSSLEAAAGPLGCCR
For the protein B1, the “phosphorylation of c-Jun, ATF2 and Elk1 by recombinant JNK1, solid phase kinase assay (peptide 0-25 µM)” value in data set [1] was “Nearly complete inhibition of c-Jun, ATF2 and Elk1 phosphorylation by JNKs was observed at TAT-IB peptide doses as low as 2.5 µM”; in data set [3], “Nearly complete inhibition of c-Jun, ATF2 and Elk1 phosphorylation by JNKs was observed at TAT-IB peptide doses as low as 2.5 µM”. In addition, in data set [2], the “GST-Jun (a.a. 1-73) phosphorylation by recombinant JNK1, fold less efficient than L-TAT-IB1 (0-250 µM dosage study)” value was “approximately 10-20 fold less efficiently than L-TAT-IB1”.

B2: recombinant JNK1α1 (protein)
chain: MSRSKRDNNFYSVEIGDSTFTVLKRYQNLKPIGSGAQGIVCAAYDAILERNVAIKKLSRPFQNQTHAKRAYRELVLMKCVNHKNIIGLLNVFTPQKSLEEFQDVYIVMELMDANLCQVIQMELDHERMSYLLYQMLCGIKHLHSAGIIHRDLKPSNIVVKSDCTLKILDFGLARTAGTSFMMTPYVVTRYYRAPEVILGMGYKENVDLWSVGCIMGEMVCHKILFPGRDYIDQWNKVIEQLGTPCPEFMKKLQPTVRTYVENRPKYAGYSFEKLFPDVLFPADSEHNKLKASQARDLLSKMLVIDASKRISVDEALQHPYINVWYDPSEAEAPPPKIPDKQLDEREHTIEEWKELIYKEVMDLEERTKNGVIRGQPSPLAQVQQ
In the case of B2, the “in vitro phosphorylation of GST-Jun and GST-Elk1 by JNK1α1, kinase assay” value is “their ability to prevent the phosphorylation in vitro of known JNK targets c-Jun and Elk1 using JNK1α1” in data set [4]; “their ability to prevent the phosphorylation in vitro of known JNK targets c-Jun and Elk1 using JNK1α1” in data set [5].

B3: MKK7 kinase (protein)
chain: MAASSLEQKLSRLEAKLKQENREARRRIDLNLDISPQRPRPTLQLPLANDGGSRSPSSESSPQHPTPPARPRHMLGLPSTLFTPRSMESIEIDQKLQEIMKQTGYLTIGGQRYQAEINDLENLGEMGSGTCGQVWKMRFRKTGHVIAVKQMRRSGNKEENKRILMDLDVVLKSHDCPYIVQCFGTFITNTDVFIAMELMGTCAEKLKKRMQGPIPERILGKMTVAIVKALYYLKEKHGVIHRDVKPSNILLDERGQIKLCDFGISGRLVDSKAKTRSAGCAAYMAPERIDPPDPTKPDYDIRADVWSLGISLVELATGQFPYKNCKTDFEVLTKVLQEEPPLLPGHMGFSGDFQSFVKDCLTKDHRKRPKYNKLLEHSFIKRYETLEVDVASWFKDVMAKTESPRTSGVLSQPHLPFFR
In the case of B3, the “kinase activity towards its substrate, panel of 40 kinases (10 µM peptides, 10 µM ATP)” value was “the JNKI peptides had an affect on the JNKs and MKK4 and MKK7 kinases” in data set [4]; “the JNKI peptides had an affect on the JNKs and MKK4 and MKK7 kinases” in data set [5].

B4: MKK4 kinase (protein)
chain: MAAPSPSGGGGSGGGSGSGTPGPVGSPAPGHPAVSSMQGKRKALKLNFANPPFKSTARFTLNPNPTGVQNPHIERLRTHSIESSGKLKISPEQHWDFTAEDLKDLGEIGRGAYGSVNKMVHKPSGQIMAVKRIRSTVDEKEQKQLLMDLDVVMRSSDCPYIVQFYGALFREGDCWICMELMSTSFDKFYKYVYSVLDDVIPEEILGKITLATVKALNHLKENLKIIHRDIKPSNILLDRSGNIKLCDFGISGQLVDSIAKTRDAGCRPYMAPERIDPSASRQGYDVRSDVWSLGITLYELATGRFPYPKWNSVFDQLTQVVKGDPPQLSNSEEREFSPSFINFVNLCLTKDESKRPKYKELLKHPFILMYEERAVEVACYVCKILDQMPATPSSPMYVD
Consider B4, for which the “kinase activity towards its substrate, panel of 40 kinases (10 µM peptides, 10 µM ATP)” value is “the JNKI peptides had an affect on the JNKs and MKK4 and MKK7 kinases” in data set [4]; “the JNKI peptides had an affect on the JNKs and MKK4 and MKK7 kinases” in data set [5].

B5: recombinant nonactivated JNK3 (protein)
chain: MSLHFLYYCSEPTLDVKIAFCQGFDKQVDVSYIAKHYNMSKSKVDNQFYSVEVGDSTFTVLKRYQNLKPIGSGAQGIVCAAYDAVLDRNVAIKKLSRPFQNQTHAKRAYRELVLMKCVNHKNIISLLNVFTPQKTLEEFQDVYLVMELMDANLCQVIQMELDHERMSYLLYQMLCGIKHLHSAGIIHRDLKPSNIVVKSDCTLKILDFGLARTAGTSFMMTPYVVTRYYRAPEVILGMGYKENVDIWSVGCIMGEMVRHKILFPGRDYIDQWNKVIEQLGTPCPEFMKKLQPTVRNYVENRPKYAGLTFPKLFPDSLFPADSEHNKLKASQARDLLSKMLVIDPAKRISVDDALQHPYINVWYDPAEVEAPPPQIYDKQLDEREHTIEEWKELIYKEVMNSEEKTKNGVVKGQPSPSGAAVNSSESLPPSSSVNDISSMSTDQTLASDTDSSLEASAGPLGCCR
As to B5, in data set [1], the “phosphorylation of Elk1 by recombinant JNK3, solid phase kinase assay” value was “a marked exception was the absence of TAT-IB inhibition of JNK3 phosphorylation of Elk1”; the “phosphorylation of c-Jun and ATF2 by recombinant JNK3, solid phase kinase assay (peptide 0-25 µM)” value was “Nearly complete inhibition of c-Jun, ATF2 and Elk1 phosphorylation by JNKs was observed at TAT-IB peptide doses as low as 2.5 µM”. For the same protein, the “GST-Jun (a.a. 1-73) phosphorylation by recombinant JNK3, fold less efficient than L-TAT-IB1 (0-250 µM dosage study)” value in data set [2] is reported as “approximately 10-20 fold less efficiently than L-TAT-IB1”. Also, in data set [3], the “phosphorylation of Elk1 by recombinant JNK3, solid phase kinase assay” value is “a marked exception was the absence of TAT-IB inhibition of JNK3 phosphorylation of Elk1”; the “phosphorylation of c-Jun and ATF2 by recombinant JNK3, solid phase kinase assay (peptide 0-25 µM)” value was “Nearly complete inhibition of c-Jun, ATF2 and Elk1 phosphorylation by JNKs was observed at TAT-IB peptide doses as low as 2.5 µM”.

B6: recombinant nonactivated JNK2 (protein)
chain: MSDSKCDSQFYSVQVADSTFTVLKRYQQLKPIGSGAQGIVCAAFDTVLGINVAVKKLSRPFQNQTHAKRAYRELVLLKCVNHKNIISLLNVFTPQKTLEEFQDVYLVMELMDANLCQVIHMELDHERMSYLLYQMLCGIKHLHSAGIIHRDLKPSNIVVKSDCTLKILDFGLARTACTNFMMTPYVVTRYYRAPEVILGMGYKENVDIWSVGCIMGELVKGCVIFQGTDHIDQWNKVIEQLGTPSAEFMKKLQPTVRNYVENRPKYPGIKFEELFPDWIFPSESERDKIKTSQARDLLSKMLVIDPDKRISVDEALRHPYITVWYDPAEAEAPPPQIYDAQLEEREHAIEEWKELIYKEVMDWEERSKNGVVKDQPSDAAVSSNATPSQSSSINDISSMSTEQTLASDTDSSLDASTGPLEGCR
For B6, the “phosphorylation of c-Jun, ATF2 and Elk1 by recombinant JNK2, solid phase kinase assay (peptide 0-25 µM)” value was “Nearly complete inhibition of c-Jun, ATF2 and Elk1 phosphorylation by JNKs was observed at TAT-IB peptide doses as low as 2.5 µM” in data set [1]; “Nearly complete inhibition of c-Jun, ATF2 and Elk1 phosphorylation by JNKs was observed at TAT-IB peptide doses as low as 2.5 µM” in data set [3]. The “GST-Jun (a.a. 1-73) phosphorylation by recombinant JNK2, fold less efficient than L-TAT-IB1 (0-250 µM dosage study)” value in data set [2] is recorded as “approximately 10-20 fold less efficiently than L-TAT-IB1”.
